# From patent publication US9289381B2, “Stabilization and storage of biological pharmaceutical compositions” (The University of North Carolina at Charlotte, priority 2009, dated 2016)
# Where “and” joins values, the source holds several entries; their conditions need not be identical. Equal entries are not always repeated.
# Experiment: Microcalorimetry (DSC) of HEWL dispersions stored in 80% w/w CDHP or 0.1M NaOAc
# Format: physicochemical
# Set-up: Thermal transition midpoint temperature of HEWL: unit not given here
# Protocol: The samples were formulated in 2 ml silanized glass vials to reduce protein-surface interactions, covered with cap and septa, wrapped with parafilm to ensure no drying out of the sample, and stored away from sunlight. They were stirred for at least 24 hours until a homogeneous distribution of protein was obtained. […] The 35 silanized vials were exposed to UV light for 24 hours to ensure sterility. Control samples at equivalent concentrations were also prepared in triplicates in 0.1M NaOAc buffer (pH 4). Samples were tested for thermal stability via microcalorimetry and functional activity via the micrococcus lysodeikticus assay at monthly intervals.
# A MicroCal VP-DSC microcalorimeter was used to assess thermal structural stability of all samples. Baseline repeatability was established with a minimum of 5 buffer-buffer scans. […] HEWL solutions were tested similarly with no dilution of the samples. Between samples, during the filling period of 15° C. to 25° C., the sample cell of the DSC was flushed with at least 25 ml distilled H2O, then at least 15 ml NaOAc to ensure no sample residue remained behind. Thermal profiles, enthalpy changes, and transition temperatures were obtained with Origin software.
# All formulations were diluted to 0.1-0.5 mg/ml for testing. This allows one to observe how well protein thermal stability and structural integrity is maintained following storage and then dilution into a solution of similar composition as the environment of the body.
# [1] = stored at 10 mg/ml in Choline dhp, 1 month
# [2] = stored at 10 mg/ml in Choline dhp, 2 months
# [3] = stored at 10 mg/ml in Choline dhp, 3 months
# [4] = stored at 10 mg/ml in Choline dhp, 4 months
# [5] = stored at 10 mg/ml in Choline dhp, 5 months
# [6] = stored at 100 mg/ml in Choline dhp, 0 months
# [7] = stored at 100 mg/ml in Choline dhp, 1 month
# [8] = stored at 100 mg/ml in Choline dhp, 2 months
substance,measurement,setting,value
"HEWL: hen egg white lysozyme (HEWL), a well characterized protein, purchased from Worthington Biochem","enthalpic change during unfolding at 1 month, % of the maximum (average)",10 mg/ml HEWL control formulation (0.1M NaOAc),64%
same,"enthalpic change during unfolding at 1 month, % of the maximum (average)",10 mg/ml HEWL in 80% w/w CDHP,87%
same,"enthalpic change during unfolding at 1 month, % of the maximum (average)",100 mg/ml HEWL control formulation (0.1M NaOAc),60%
same,"enthalpic change during unfolding at 1 month, % of the maximum (average)",100 mg/ml HEWL in 80% w/w CDHP,85%
same,"shelf-life (fraction of folded protein, Cp signal)","80% CDHP wt/wt vs 0.1M sodium acetate pH 4.0, 1-3 months at room temperature",superior shelf-life
same,drop of Tm over 5 months,HEWL control formulations (0.1M NaOAc),between one and two degrees
same,drop of Tm over 5 months,HEWL formulated in 80% w/w CDHP,less than a degree
same,Enthalpy of unfolding of HEWL,"stored at 10 mg/ml in 0.1M NaOAc, 0 months",416.27 kJ/mol and 428.986 kJ/mol and 441.328 kJ/mol
same,Enthalpy of unfolding of HEWL,"stored at 10 mg/ml in 0.1M NaOAc, 1 month",299.74 kJ/mol and 281.67 kJ/mol and 245.89 kJ/mol
same,Enthalpy of unfolding of HEWL,"stored at 10 mg/ml in 0.1M NaOAc, 2 months",225.33 kJ/mol and 220.97 kJ/mol and 237.99 kJ/mol
same,Enthalpy of unfolding of HEWL,"stored at 10 mg/ml in 0.1M NaOAc, 3 months",163.88 kJ/mol and 170.43 kJ/mol and 170.25 kJ/mol
same,Enthalpy of unfolding of HEWL,"stored at 10 mg/ml in 0.1M NaOAc, 4 months",104.059 kJ/mol and 154.522 kJ/mol and 112.787 kJ/mol
same,Enthalpy of unfolding of HEWL,"stored at 10 mg/ml in 0.1M NaOAc, 5 months",76.986 kJ/mol and 87.446 kJ/mol and 93.722 kJ/mol
same,Enthalpy of unfolding of HEWL,"stored at 10 mg/ml in Choline dhp (80% w/w CDHP), 0 months",426.768 kJ/mol and 425.513 kJ/mol and 453.127 kJ/mol
same,Thermal transition midpoint temperature of HEWL,"stored at 10 mg/ml in Choline dhp, 0 months",346.71 and 346.74
same,Enthalpy of unfolding of HEWL,[1],380.46 kJ/mol and 380.14 kJ/mol and 374.93 kJ/mol
same,Thermal transition midpoint temperature of HEWL,[1],346.7 and 346.62 and 346.75
same,Enthalpy of unfolding of HEWL,[2],337.95 kJ/mol and 331.52 kJ/mol and 331.01 kJ/mol
same,Thermal transition midpoint temperature of HEWL,[2],346.84 and 346.81 and 346.39
same,Enthalpy of unfolding of HEWL,[3],236.98 kJ/mol and 231.07 kJ/mol and 265.34 kJ/mol
same,Thermal transition midpoint temperature of HEWL,[3],346.98 and 346.52 and 346.35
same,Enthalpy of unfolding of HEWL,[4],195.48 kJ/mol and 198.15 kJ/mol and 214 kJ/mol
same,Thermal transition midpoint temperature of HEWL,[4],346.47 and 346.43 and 346.5
same,Enthalpy of unfolding of HEWL,[5],154.39 kJ/mol and 179.91 kJ/mol
same,Thermal transition midpoint temperature of HEWL,[5],346.27 and 346.37 and 346.21
same,Thermal transition midpoint temperature of HEWL,"stored at 10 mg/ml in NaOAc, 0 months",346.68 and 346.77 and 347.14
same,Thermal transition midpoint temperature of HEWL,"stored at 10 mg/ml in NaOAc, 1 month",345.79 and 345.93 and 345.94
same,Thermal transition midpoint temperature of HEWL,"stored at 10 mg/ml in NaOAc, 2 months",345.85 and 345.9 and 345.8
same,Thermal transition midpoint temperature of HEWL,"stored at 10 mg/ml in NaOAc, 3 months",345.72 and 345.9 and 345.48
same,Thermal transition midpoint temperature of HEWL,"stored at 10 mg/ml in NaOAc, 4 months",345.17 and 345.1 and 345.21
same,Thermal transition midpoint temperature of HEWL,"stored at 10 mg/ml in NaOAc, 5 months",345.13 and 345.05 and 345.15
same,Enthalpy of unfolding of HEWL,"stored at 100 mg/ml in 0.1M NaOAc, 0 months",423.17 kJ/mol and 440.157 kJ/mol and 452.709 kJ/mol
same,Enthalpy of unfolding of HEWL,"stored at 100 mg/ml in 0.1M NaOAc, 1 month",259.45 kJ/mol and 236.86 kJ/mol and 301.14 kJ/mol
same,Enthalpy of unfolding of HEWL,"stored at 100 mg/ml in 0.1M NaOAc, 2 months",243.97 kJ/mol and 254.63 kJ/mol and 228.99 kJ/mol
same,Enthalpy of unfolding of HEWL,"stored at 100 mg/ml in 0.1M NaOAc, 3 months",195 kJ/mol and 194.58 kJ/mol and 193.4 kJ/mol
same,Enthalpy of unfolding of HEWL,"stored at 100 mg/ml in 0.1M NaOAc, 4 months",129.239 kJ/mol and 134.1883 kJ/mol and 124.694 kJ/mol
same,Enthalpy of unfolding of HEWL,"stored at 100 mg/ml in 0.1M NaOAc, 5 months",112.13 kJ/mol and 121.75 kJ/mol and 99.998 kJ/mol
same,Enthalpy of unfolding of HEWL,[6],448.106 kJ/mol and 421.329 kJ/mol and 453.127 kJ/mol
same,Thermal transition midpoint temperature of HEWL,[6],347.45 and 347.05 and 347.11
same,Enthalpy of unfolding of HEWL,[7],376.43 kJ/mol and 374.91 kJ/mol and 367.67 kJ/mol
same,Thermal transition midpoint temperature of HEWL,[7],346.41 and 346.54 and 346.44
same,Enthalpy of unfolding of HEWL,[8],314.35 kJ/mol and 321.43 kJ/mol and 324.44 kJ/mol
same,Thermal transition midpoint temperature of HEWL,[8],346.42 and 346.43 and 346.47
